Reference: patent publication US20260008865A1 (TETHEREX PHARMACEUTICALS, published 2026)

Tests used:
[1] = biological target: T1, SelSP1 (PSGL-1 sulfopeptide); assay: SPR, captured SelK2, SelSP1 as analyte; value told over the two surface densities
T1 construct: also called sulfopeptide modelled after the N-terminus of human PSGL-1
Protocol: (§1) A new COOH2 biosensor was installed and conditioned according to CH0012 protocol. Protein G was immobilized via amine coupling. A mixture containing 0.1M EDC and 0.025M NHS was injected for 4 minutes over flow channel 1 (FC1) and FC2. 50 μg/mL Protein G in 10 mM Sodium acetate buffer pH 4.5 was injected for 15 minutes over FC1 and FC2. 1M Ethanolamine HCl solution pH 8.0 was injected for 5 minutes over FC1 and FC2. Approximately 1,145 response units (RU) of Protein G was coupled on FC1 and FC2 of the sensor chip. 50 nM SelK2 in system buffer was injected to capture approximately 2,000 RU SelK2 on FC1 and 1,000 RU on FC2. […] Each sample was injected for 3 min at a flow rate of 40 μL/min. Dissociation was monitored after each injection for 4 min at the same flow rate. Samples were tested in duplicate from low concentration to high.
(§2) Kinetic model fitting was performed using Qdat analysis software (SensiQ Technologies, Inc. Version 2.5.1.56). A simple 1:1 kinetic model was fit to the data to determine best fit values for association and dissociation rate constants, ka and kd. A local Rmax was fit for each curve to account for incomplete dissociation of the SelSP1 after some of the analyte injections.

[2] = biological target: T1, SelSP1 (PSGL-1 sulfopeptide); assay: SPR (SensiQ Pioneer), about 1,000 RU SelK2 captured on Protein G, SelSP1 as analyte, 25 °C, 1:1 model
Protocol: (§3) SensíQ Pioneer (S/N 13110154) was used for all SPR measurements at a controlled temperature of 25° C. SelK2 (Lot #14-2189) was dispensed into three 1 mL aliquots in the biosafety cabinet. Protein G was purchased from BioVision (Cat. #6510). Running buffer for Pioneer contained 10 mM HEPES pH 7.4, 150 mM NaCl, 3.4 mM EDTA and 0.005% Tween-20. All other reagents were purchased from Sigma Aldrich.
as §1, §2

[3] = biological target: T1, SelSP1 (PSGL-1 sulfopeptide); assay: SPR (SensiQ Pioneer), about 2,000 RU SelK2 captured on Protein G, SelSP1 as analyte, 25 °C, 1:1 model
Protocol: as §3, §1, §2

[4] = biological target: T1, SelSP1 (PSGL-1 sulfopeptide); assay: SPR; summary sentence in the description; target printed as PSGL-1, but the worked example used the PSGL-1 sulfopeptide SelSP1

B1: SelK2 (antibody, human IgG2, kappa, V domains shown)
VH: QVQLVESGGGVVQPGRSLRLSCAASGFTFSSFGMHWVRQAPGKGLEWVAYISSASSTIYYADTVKGRFTISRDNSKNTLYLQMNSLRAEDTAVYYCASSYGYWGQGTLVTVSS
VL: DIVMTQTPLSLPVTPGEPASISCRSSRSLVHSNGNTYLHWYLQKPGQSPQLLIYKVSNRFSGVPDRFSGSGSGTDFTLKISRVEAEDVGVYYCSQTTHVPLTFGQGTRLEIKR
notes: human kappa light chain; also called SelK2 antibody; humanised anti-PSGL-1 antibody
[1]
  Kd: 4.28 nM
[2]
  Kd: 4.27 nM
  koff: 0.00232 s⁻¹
  kon: 544000 M⁻¹ s⁻¹
[3]
  Kd: 4.29 nM
  koff: 0.00218 s⁻¹
  kon: 508000 M⁻¹ s⁻¹
[4]
  fold increase in affinity against the parental antibody: ~4 fold
